Measurements published in patent US20260069728A1, “MULTI-TARGETING COMPOUND AND USE THEREOF” (Chengdu Shetai Medical Technology Co., Ltd., priority 2023, published 2026).
Like-named read-outs stand apart in the source and are kept apart here. *1 amine or outer side, *2 acyl side, *3 side chain or, on linkers, in order; H or OH if unused. Where a SMILES comes first, the peptide text is derived from it. Bridges are numbered along the chain shown (N, C = ends). [ ]: non-standard residue; d: D form. The star is where a group is joined. X1 = N#C[C@@H]1CC(F)(F)CN1C(=O)CNC(=O)c1ccnc2ccc(OCCCN3CCN(*)CC3)cc12; DOTA = O=C(O)CN1CCN(CC(=O)O)CCN(CC(=O)*)CCN(CC(=O)O)CC1; 2Nal = N[C@@H](Cc1ccc2ccccc2c1)C(=O)O; Cit = NC(=O)NCCC[C@H](N)C(=O)O; Suc = O=C(CCC(=O)[*:2])[*:1]; AEEA = NCCOCCOCC(=O)O

Assays:
[1] = Small animal PET imaging and biodistribution study; format: in vivo, NSG mice; settings: NSG, mouse, in vivo, iv, 7.4 MBq, total radioactivity
Protocol: (§1) Eleven NSG mice bearing subcutaneous xenograft tumors (U87 MG cells), with tumor sizes approximately 150 mm^3, were used. The mice were intravenously injected via the tail vein with approximately 7.4 MBq of ^68Ga-labeled SDYD01, SDYD02, SDYD03. SDYD04, SDYD05, SDYD06, SDYD07, SDYD08 or SDYD07-1 compounds, or with ^[…]-labeled FAPI-04 or FAP2286 compounds as tracers. Micro PET/CT imaging was performed at 30 min, 60 min, and 120 min post-injection. Static images were acquired in 3D mode for 20 minutes. Reconstruction was performed using the OSEM3D/MAP method to obtain attenuation-corrected PET/CT fusion images.
(§2) NSG mice bearing subcutaneous xenograft tumors (U87 MG cells) were divided into 3 groups, with 11 mice in each group. They were intravenously injected via the tail vein with ^68Ga-labeled SDYD01, SDYD02, SDYD03. SDYD04, SDYD05, SDYD06. SDYD07, SDYD08, or SDYD07-1 compounds, or with ^68Ga-labeled FAPI-04 or FAP2286 compounds as tracers. Tumor-bearing mice injected with ^68Ga-labeled compounds SDYD01, SDYD02, SDYD03, SDYD04, SDYD05, SDYD06, FAPI-04, as well as 68Ga-labeled compounds FAPI-04 and FAP2286, were euthanized at 30 min. 60 min, and 120 min, respectively, for each group. Tumor-bearing mice injected with ^68Ga-labeled compounds SDYD07, SDYD08, and SDYD07-1 were euthanized at 30 min, 60 min, and 90 min, respectively, for each group. Blood, tumors, and other major organs and tissues were collected, weighed, and measured for radioactivity. After radioactive decay correction, the standardized uptake value (SUV) and percentage injected dose per gram of tissue (% ID/g) were calculated. In these figures, (a) represents the PET/CT imaging results, (b) represents the biodistribution results, and (c) represents the relative ratios of radioactive uptake in tumor versus normal tissues.

[2] = tested on: subcutaneous xenograft tumors (U87 MG cells); assay: Small animal PET imaging and biodistribution study; format: in vivo, NSG mice
Protocol: as §1, §2

[3] = Determination of hydrophilicity/lipophilicity (n-octanol/water distribution coefficient); format: physicochemical; settings: HEPES buffer pH=7.4 / n-octanol
Protocol: 10 μL of Purified ^68Ga-SDYD01 was diluted to 500 μL with HEPES buffer (pH=7.4), then 500 μL of n-octanol was added. The mixture was vortexed for 30 min and then centrifuged. Subsequently, 450 μL each of the aqueous and organic phases were taken and centrifuged again. Then, 100 μL each of the aqueous and organic phases were taken, and the radioactivity was measured using a γ counter to calculate the n-octanol/water distribution coefficient (Log Do/w). The measured Log Do/w value for ^68Ga-SDYD01 was −2.54±0.01, and for ^177Lu-SDYD01 was −2.55±0.05.
(§3) 10 μL of purified ^68Ga-SDYD02 was diluted to 500 μL with HEPES buffer (pH=7.4), then 500 μL of n-octanol was added. […] Then, 100 μL each of the aqueous and organic phases were taken, and the radioactivity was measured using a γ counter to calculate the n-octanol/water distribution coefficient (Log Do/w). The measured Log Do/w value for ^68Ga-SDYD02 was −2.47±0.03, and for ^177Lu-SDYD02 was −2.35±0.02.
as §3, with “^68Ga-SDYD05” for “^68Ga-SDYD02”, “−2.37±0.02,” for “−2.47±0.03,”, “^177Lu-SDYD05” for “^177Lu-SDYD02”, “−2.46±0.05. […]” for “−2.35±0.02.”

[4] = absolute uptake value in the tumor

## CCCCCC(=O)N[C@H]1CSCc2cc(CSCCNC(=O)[C@H](CCCCNC(=O)CN3CCN(CC(=O)O)CCN(CC(=O)O)CCN(CC(=O)O)CC3)NC(=O)COCCOCCNC(=O)COCCOCCNC(=O)CCN3C(=O)CC(SCCNC(=O)CCC(=O)NCc4ccc(NC(=O)COCC(=O)N[C@H](Cc5ccccc5)C(=O)N[C@@H](CCC(N)=O)C(=O)N[C@@H](Cc5c[nH]c6ccccc56)C(=O)N[C@@H](C)C(=O)N[C@H](C(=O)NCC(=O)N[C@@H](Cc5c[nH]cn5)C(=O)NC(CC(C)C)CC(C)C)C(C)C)cc4)C3=O)cc(c2)CSC[C@@H](C(=O)O)NC(=O)[C@H](Cc2ccccc2)NC(=O)[C@H](CCC(N)=O)NC(=O)C([C@@H](C)O)NC(=O)[C@@H]2CCCN2C(=O)[C@@H]2CCCN2C1=O (some centres unmarked) [^68Ga-SDYD04, metal not drawn]
[1]; 30 minutes post-injection, read-out: absolute uptake value in the tumor
  tissue uptake at 0.5 h: ≥ 10 %ID/g
[1]; 60 minutes post-injection, read-out: absolute uptake value in the tumor
  tissue uptake at 1 h: ≥ 10 %ID/g
[2]; tail vein injection, U87 MG tumor-bearing NSG mice
  radioactive uptake in the tumor sites (in words): significant radioactive uptake in the tumor sites
[3]
  n-octanol/water distribution coefficient (Log Do/w): −1.63±0.07

## N#C[C@@H]1CC(F)(F)CN1C(=O)CNC(=O)c1ccnc2ccc(OCCCN3CCN(C(=O)CCC(=O)N[C@@H](CCCCNC(=O)CN4CCN(CC(=O)O)CCN(CC(=O)O)CCN(CC(=O)O)CC4)C(=O)NCCOCCOCC(=O)NCCOCCOCC(=O)N[C@@H](CCCNC(=N)N)C(=O)N[C@@H](CCCNC(=N)N)C(=O)N[C@@H](Cc4ccc5ccccc5c4)C(=O)N[C@H]4CSSC[C@@H](C(=O)N[C@@H](CCCNC(=N)N)C(N)=O)NC(=O)[C@H](CCCNC(N)=O)NC(=O)[C@H](CCCNC(=N)N)NC(=O)[C@H](Cc5ccc(O)cc5)NC(=O)[C@@H]5CCCN5C(=O)[C@H](CCCCN)NC(=O)[C@H](CCCCN)NC(=O)[C@H](CCCNC(N)=O)NC(=O)[C@H](Cc5ccc(O)cc5)NC4=O)CC3)cc12 [^68Ga-SDYD01, metal not drawn] ({X1-Suc}-K(DOTA)[AEEA][AEEA]RR[2Nal]CY[Cit]KKPYR[Cit]CR-NH2; disulfide 7-16)
[1]; [4]
  tissue uptake at 0.5 h: ≥ 10 %ID/g
  tissue uptake at 1 h: ≥ 10 %ID/g
[2]; mouse, in vivo
  radioactive uptake in the tumor sites (in words): significant radioactive uptake in the tumor sites
[3]
  n-octanol/water distribution coefficient (Log Do/w): −2.54±0.01
